Results: US7087420B1, “Microbial β-glucuronidase genes, gene products and uses thereof” (Cambia, priority 1997, dated 2006)

Experiments:
Assay type in all cases: cell-based
[1] = tested on: KW1 cells; experiment: Cellular localization: GUS activity in periplasm fraction, β-gal activity subtracted; conditions: percent of total activity in periplasm fraction, expressed in E. coli, β-gal background subtracted
Source text: Secretion index maybe calculated as the percentage of total GUS activity in periplasm or other extracellular environment less the percentage of total β-galactosidase activity found in the same extracellular environment.
Secretion of the enzyme may be verified by assaying for GUS activity in the extracellular environment. If the cells secreting GUS are gram-positive bacteria, yeasts, molds, plants, or other organisms with cell walls, activity may be assayed in the culture medium and in a cell extract, however, the protein may not be transported through the cell wall. Thus, if no or low activity of a secreted form of GUS is found in the culture medium, protoplasts made by osmotic shock or enzymatic digestion of the cell wall or other suitable procedure and the supernatant are assayed for GUS activity. […]
Cellular fractions (e.g., periplasm, spheroplast, supernatant, etc.) are prepared from KW1 cells transformed with pRAJa17.1 or a subfragment that contains the GUS gene and from E. coli cells that express β-glucuronidase. GUS activity and β-galactosidase (β-gal) activity is determined for each fraction. The percent of total activity in the periplasm fraction for GUS and β-gal (a non-secreted protein) are calculated; the amount of β-gal activity is considered background and thus is subtracted from the amount of β-glucuronidase activity. […]

[2] = tested on: E. coli; experiment: GUS activity of transfectants with expression vectors, E. coli host; parameters: key: all tested transfectants exhibit GUS activity (indicated by a +); conditions: No SP (signal peptide)
Procedure: (§1) A series of expression vector constructs of three different GUS genes, E. coli GUS, Staphylococcus GUS, and the AO version of codon-optimized Staphylococcus GUS, are prepared and tested for enzymatic activity in E. coli, yeast, and plants (rice, Millin variety). […] The E. coli vector contains a sequence encoding a pelB signal peptide, the yeast vectors contain a sequence encoding either an invertase or Mat alpha signal peptide, and the plant vectors contain a sequence encoding either a glycine-rich protein (GRP) or extensin signal peptide.
(§2) The GUS genes are cloned into each of these vectors using standard recombinant techniques of isolation of a GUS-gene containing fragment and ligation into an appropriately restricted vector. The recombinant vectors are then transfected into the appropriate host and transfectants are tested for GUS activity.
(§3) Moreover, similar results are obtained regardless of the presence or absence of a signal peptide.

[3] = tested on: yeast; experiment: GUS activity of transfectants with expression vectors, yeast host; parameters: key: all tested transfectants exhibit GUS activity (indicated by a +)
Procedure: as §1, §2, §3

[4] = tested on: plants (rice, Millin variety); experiment: GUS activity of transfectants with expression vectors, plant host; parameters: key: all tested transfectants exhibit GUS activity (indicated by a +)
Procedure: as §1, §2, §3

B1: E. coli GUS: E. coli β-glucuronidase encoded by gusA, 603 amino acids, used as comparison standard (protein, UniProt P05804 1-603, looked up)
Beta-glucuronidase: MLRPVETPTREIKKLDGLWAFSLDRENCGIDQRWWESALQESRAIAVPGSFNDQFADADIRNYAGNVWYQREVFIPKGWAGQRIVLRFDAVTHYGKVWVNNQEVMEHQGGYTPFEADVTPYVIAGKSVRITVCVNNELNWQTIPPGMVITDENGKKKQSYFHDFFNYAGIHRSVMLYTTPNTWVDDITVVTHVAQDCNHASVDWQVVANGDVSVELRDADQQVVATGQGTSGTLQVVNPHLWQPGEGYLYELCVTAKSQTECDIYPLRVGIRSVAVKGEQFLINHKPFYFTGFGRHEDADLRGKGFDNVLMVHDHALMDWIGANSYRTSHYPYAEEMLDWADEHGIVVIDETAAVGFNLSLGIGFEAGNKPKELYSEEAVNGETQQAHLQAIKELIARDKNHPSVVMWSIANEPDTRPQGAREYFAPLAEATRKLDPTRPITCVNVMFCDAHTDTISDLFDVLCLNRYYGWYVQSGDLETAEKVLEKELLAWQEKLHQPIIITEYGVDTLAGLHSMYTDMWSEEYQCAWLDMYHRVFDRVSAVVGEQVWNFADFATSQGILRVGGNKKGIFTRDRKPKSAAFLLQKRWTGMNFGEKPQQGGKQ
GUS activity found in the periplasm [1]: less than 10% | GUS activity [2]: + | GUS activity ([3]; Invertase signal peptide): + | GUS activity ([3]; Mat α signal peptide): + | GUS activity ([3]; No SP): + | GUS activity ([4]; Extensin signal peptide): + | GUS activity ([4]; GRP signal peptide): + | GUS activity ([4]; No SP): +
